Paper PMC4529466, “Intradermal insulin infusion achieves faster insulin action than subcutaneous infusion for 3-day wear” (Drug Delivery and Translational Research, 2015)

Test: Postprandial serum insulin aspart pharmacokinetics after meal bolus, 3-day ID vs SC infusion
Assay type: in vivo, human (T1DM patients)
Conditions: for ΔAUCIns0−1: 0–1 h; for ΔAUCIns0−1 / ΔAUCIns0–1.5 / ΔAUCIns0–2 / ΔAUCIns0–4 / T50_max_falling / T50_max_rising / Tmax / ΔCmax: mean ± SD; for ΔAUCIns0–1.5: 0–1.5 h; for ΔAUCIns0–2: 0–2 h; for ΔAUCIns0–4: 0–4 h; for Intra-subject variability of Tmax: across all study days and breakfast and lunch meals
Text: This was a single center, open-label, two-period crossover study, randomized by infusion order, in T1DM patients on continuous subcutaneous insulin infusion (CSII). The protocol was approved by an independent ethics committee (Ethikkommission der Ärztekammer Nordrhein, Düsseldorf, Germany), appropriate regulatory bodies (German Federal Institute for Drugs and Medical Devices (BfArM)), and conducted in compliance with good clinical practice (GCP), the Declaration of Helsinki, and applicable regulatory requirements.
The study was completed over a multi-week period consisting of three study visits: a screening visit (V1) and two interventional visits (V2 and V3). After establishing eligibility and enrollment, patients received treatment during two interventional visits: one SC and one ID basal/bolus infusion of insulin aspart (NovoRapid® U-100, Novo Nordisk, Copenhagen, Denmark) administered over 3 days in a randomized order.
For each dosing visit, patients arrived the evening prior to the first standardized meal to verify compliance with protocol criteria. An intravenous catheter was inserted into a peripheral vein of the arm for manual blood sampling. Infusion sets, ID (34 G × 1.5 mm length stainless steel microneedle catheter set, BD Technologies, Research Triangle Park, NC) or SC (25 G × 6 mm length soft cannula, Quick-Set, Medtronic Minimed, Northridge, CA), were connected to an insulin infusion pump (Animas® Vibe™, Animas Corporation, West Chester, PA) and primed according to the manufacturer’s instructions. Sets were placed into the patient’s abdomen (periumbilical, left or right) using a customized applicator for the ID set, or the manufacturer recommended inserter for the SC set (customized Sof-serter® and Quick-serter® respectively, both Medtronic Minimed, Northridge, CA). Due to the small adhesive surface on the microneedle catheter, a modified IV dressing (IV3000 1-Hand, Smith & Nephew, England) was used for additional securement over the catheter. A safety loop was used on all catheter lines as recommended by general insulin pump user guidance (Fig. 1c). The respective infusion sets provided all basal and bolus insulin delivery of insulin aspart for the duration of each 72-h study period. A fluid pressure transducer (BD-DTX™ Plus, Becton Dickinson, Franklin Lakes, NJ) was connected in-line between the pump reservoir and each infusion set to monitor infusion delivery pressure, with automated data capture via a commercial data logging system (LORD MicroStrain®, Williston, VT) to provide a secondary post hoc measure of delivery status. The pump/pressure monitoring system combination was contained in a waist pack for the duration of delivery due to its potentially cumbersome size.
After maintaining targeted blood glucose range during the preceding night, bolus insulin doses were administered via the respective infusion catheter prior to standardized breakfast and lunch test meals on each of the three treatment days. Each meal insulin bolus was calculated based on the patient’s insulin sensitivity and previous hours change in BG per sliding scale then delivered immediately prior to breakfast (t = 0 min) and lunch (t = 360 min) consumption. Breakfast was a high glycemic index (60 g carbohydrates) solid meal, and lunch was a mixed meal based on the individual’s calculated daily energy intake and equivalent in caloric composition by day. Breakfast and lunch meals were consumed within 15 min followed by serial blood sampling with BG monitoring for a period of 6 and 4 h, respectively. Patients were asked to remain sedentary for 2 h after meals. Identical study procedures were utilized for the remaining dosing visit days (Fig. 2).
To assess insulin absorption kinetics and glycemic response, blood samples for measurements of insulin aspart and blood glucose in serum were drawn at predefined time points throughout dosing visits. Serial samples for safety BG determination, but not PK analysis, were obtained at a minimum every 2 h. […]

[1] = ID infusion, Day 1, across meals
[2] = ID infusion, Day 2, across meals
[3] = ID infusion, Day 3, across meals
[4] = ID infusion, Days 1–3 combined, across meals, n = 141–156
[5] = SC infusion, Day 1, across meals
[6] = SC infusion, Day 2, across meals
[7] = SC infusion, Day 3, across meals
[8] = SC infusion, Days 1–3 combined, across meals, n = 141–156

insulin aspart
reduction of Tmax compared to the respective SC delivery (ID bolus vs SC): greater than 40% | decrease of T50_max_falling, ID vs SC (ID bolus vs SC, p < 0.0001): ~25% | decrease of T50_max_rising, ID vs SC (ID bolus vs SC, p < 0.0001): ~ 50% | ΔAUCIns0−1 [1]: 39.5 ± 31.4 mU*h/L | ΔAUCIns0−1 [2]: 43.7 ± 36 mU*h/L | ΔAUCIns0−1 [3]: 44.8 ± 37.4 mU*h/L | ΔAUCIns0−1 [4]: 42.5 ± 34.7 mU*h/L | ΔAUCIns0–1.5 [1]: 56.6 ± 46.4 mU*h/L | ΔAUCIns0–1.5 [2]: 61.6 ± 54.0 mU*h/L | ΔAUCIns0–1.5 [3]: 62.8 ± 55.6 mU*h/L | ΔAUCIns0–1.5 [4]: 60.2 ± 51.6 mU*h/L | ΔAUCIns0–2 [1]: 68.5 ± 59.0 mU*h/L | ΔAUCIns0–2 [2]: 74.0 ± 67.8 mU*h/L | ΔAUCIns0–2 [3]: 75.7 ± 71.2 mU*h/L | ΔAUCIns0–2 [4]: 72.5 ± 65.5 mU*h/L | ΔAUCIns0–4 [1]: 86.9 ± 85.8 mU*h/L | ΔAUCIns0–4 [2]: 92.3 ± 94.5 mU*h/L | ΔAUCIns0–4 [3]: 94.4 ± 103 mU*h/L | ΔAUCIns0–4 [4]: 91.0 ± 93.5 mU*h/L | T50_max_falling [1]: 108 ± 39.2 min | T50_max_rising [1]: 5.7 ± 2.2 min | Tmax [1]: 27.6 ± 13.9 min | ΔCmax [1]: 54.5 ± 42.1 mU/L | T50_max_falling [2]: 106 ± 32.6 min | T50_max_rising [2]: 5.8 ± 2.6 min | Tmax [2]: 29.1 ± 13.3 min | ΔCmax [2]: 58.6 ± 47.0 mU/L | T50_max_falling [3]: 107 ± 36.7 min | T50_max_rising [3]: 6.4 ± 2.3 min | Tmax [3]: 29.1 ± 12.5 min | ΔCmax [3]: 61.2 ± 51.5 mU/L | ΔCmax (ID infusion, Days 1–3 combined, across meals, baseline corrected, n = 141–156): 57.9 ± 46.5 mU/L | T50_max_falling [4]: 107 ± 36.1 min | T50_max_rising [4]: 6.0 ± 2.4 min | Tmax [4]: 28.5 ± 13.2 min | Intra-subject variability of Tmax (ID): 29.6 %CV | intra-subject Tmax variability measured by %CV (ID, across meals and days): 30% | ΔAUCIns0−1 [5]: 29.9 ± 25.3 mU*h/L | ΔAUCIns0−1 [6]: 30.6 ± 21.1 mU*h/L | ΔAUCIns0−1 [7]: 33.6 ± 25.7 mU*h/L | ΔAUCIns0−1 [8]: 31.3 ± 24 mU*h/L | ΔAUCIns0–1.5 [5]: 45.9 ± 38.9 mU*h/L | ΔAUCIns0–1.5 [6]: 48.7 ± 35.9 mU*h/L | ΔAUCIns0–1.5 [7]: 52.8 ± 42.5 mU*h/L | ΔAUCIns0–1.5 [8]: 49.0 ± 39.0 mU*h/L | ΔAUCIns0–2 [5]: 57.8 ± 50.9 mU*h/L | ΔAUCIns0–2 [6]: 62.6 ± 49.6 mU*h/L | ΔAUCIns0–2 [7]: 66.7 ± 57.0 mU*h/L | ΔAUCIns0–2 [8]: 62.2 ± 52.3 mU*h/L | ΔAUCIns0–4 [5]: 77.4 ± 76.2 mU*h/L | ΔAUCIns0–4 [6]: 85.7 ± 82.3 mU*h/L | ΔAUCIns0–4 [7]: 87.7 ± 86.9 mU*h/L | ΔAUCIns0–4 [8]: 83.4 ± 81.3 mU*h/L | T50_max_falling [5]: 135 ± 51.1 min | T50_max_rising [5]: 13.2 ± 7.9 min | Tmax [5]: 46.0 ± 28.4 min | ΔCmax [5]: 47.4 ± 37.5 mU/L | T50_max_falling [6]: 143 ± 44.1 min | T50_max_rising [6]: 12.0 ± 9.5 min | Tmax [6]: 50.1 ± 19.7 min | ΔCmax [6]: 47.2 ± 34.8 mU/L | T50_max_falling [7]: 136 ± 39.5 min | T50_max_rising [7]: 11.2 ± 5.0 min | Tmax [7]: 47.1 ± 18.3 min | ΔCmax [7]: 51.5 ± 40.8 mU/L | ΔCmax (SC infusion, Days 1–3 combined, across meals, baseline corrected, n = 141–156): 48.7 ± 37.6 mU/L | T50_max_falling [8]: 138 ± 45.1 min | T50_max_rising [8]: 12.2 ± 7.7 min | Tmax [8]: 47.7 ± 22.8 min | Intra-subject variability of Tmax (SC): 36.7 %CV | intra-subject Tmax variability measured by %CV (SC, across meals and days): 37% | Tmax shortening, ID vs SC (across days): ~ 19 min | time reduction of T50%maxfalling, ID vs SC (across days): ~31 min | time reduction of T50%maxrising, ID vs SC (across days): ~ 6 min | less intra-subject variability (%CV), ID compared to SC (across meals and days): ~ 7%
